Assay results published in patent US20230416363A1 (KADMON, published 2023).

Tests used:
[1] = molecular target: T1, human PD-1 expressed on cells (human, UniProt Q15116 25-288); test: flow cytometry, activated PBMC donor FA
T1 construct: whole, on cells

[2] = molecular target: T1, human PD-1 expressed on cells; test: flow cytometry, hPD-1-293 cells
[3] = molecular target: T2, hPD-1-his (human, UniProt Q15116 25-167); test: SPR, Exp. 3
T2 construct: domain: IgV domain; monomer in solution; biotin-labelled where captured by streptavidin; also called biotin-hPD-1-his

[4] = molecular target: T3, hPD-1-Fc (human, UniProt Q15116 25-167); test: SPR, Exp. 3
T3 construct: domain: IgV domain; also called human PD-1-Fc; not shown: human IgG1 Fc

[5] = molecular target: T3, hPD-1-Fc; test: blocking ELISA, PD-1 to PD-L2
[6] = molecular target: T2, hPD-1-his; test: ELISA, PD-1-his on anti-his
[7] = molecular target: T3, hPD-1-Fc; test: SPR Biacore T200, PD-1-Fc immobilised
[8] = molecular target: T1, human PD-1 expressed on cells; test: flow cytometry, activated PBMC donor two
[9] = molecular target: T2, hPD-1-his; test: SPR, Exp. 1
[10] = molecular target: T3, hPD-1-Fc; test: SPR, Exp. 1
[11] = molecular target: T2, hPD-1-his; test: ELISA, biotin-hPD-1-his on streptavidin
[12] = molecular target: T1, human PD-1 expressed on cells; test: flow cytometry, SEB-activated PBMC donor
[13] = molecular target: T1, human PD-1 expressed on cells; test: cell-based or functional assay
[14] = molecular target: T3, hPD-1-Fc; test: ELISA, hPD1-Fc coated
[15] = molecular target: T1, human PD-1 expressed on cells; test: flow cytometry, hPD1-293 cells
[16] = molecular target: T1, human PD-1 expressed on cells; test: cell-based or functional assay; remark: listed apart in the source
[17] = molecular target: T2, hPD-1-his; test: ELISA, hPD-1-his on anti-his
[18] = molecular target: T3, hPD-1-Fc; test: ELISA, PD-1-Fc coated
[19] = molecular target: T3, hPD-1-Fc; test: SPR, range over experiments
[20] = molecular target: T3, hPD-1-Fc; test: blocking ELISA, hPD-1-Fc to hPD-L1-Fc
[21] = molecular target: T1, human PD-1 expressed on cells; test: flow cytometry, hPD-1-Jurkat cells
[22] = molecular target: T2, hPD-1-his; test: SPR, Exp. 4
[23] = molecular target: T1, human PD-1 expressed on cells; test: cell-based or functional assay; remark: listed apart in the source
[24] = molecular target: T1, human PD-1 expressed on cells; test: flow cytometry, hPD1-Jurkat cells
[25] = molecular target: T1, human PD-1 expressed on cells; test: flow cytometry, SEB-activated PBMC donor two
[26] = molecular target: T2, hPD-1-his; test: ELISA, biotin-PD-1-his on streptavidin
[27] = molecular target: T2, hPD-1-his; test: SPR Biacore T200, PD-1-his immobilised
[28] = molecular target: T3, hPD-1-Fc; test: blocking ELISA, PD-1 to PD-L1
[29] = molecular target: T2, hPD-1-his; test: SPR, Exp. 2
[30] = molecular target: T1, human PD-1 expressed on cells; test: cell-based or functional assay; remark: listed apart in the source
[31] = molecular target: T3, hPD-1-Fc; test: blocking ELISA, hPD-1-Fc to hPD-L1-Fc; remark: listed apart in the source
[32] = molecular target: T1, human PD-1 expressed on cells; test: flow cytometry, hPD1-293 cells; remark: listed apart in the source
[33] = molecular target: T1, human PD-1 expressed on cells; test: flow cytometry, SEB-activated PBMC donor one
[34] = molecular target: T1, human PD-1 expressed on cells; test: flow cytometry, SEB-activated PBMC donor three
[35] = molecular target: T3, hPD-1-Fc; test: ELISA, hPD-1-Fc coated
[36] = molecular target: T2, hPD-1-his; test: ELISA, captured hPD-1-his

T3 sequence (Q15116 25-167 limits assumed): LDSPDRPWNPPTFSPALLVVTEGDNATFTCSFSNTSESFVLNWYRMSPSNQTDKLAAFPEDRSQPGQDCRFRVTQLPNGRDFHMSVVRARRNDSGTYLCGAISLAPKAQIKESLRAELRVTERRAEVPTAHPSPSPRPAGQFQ
T2 sequence (Q15116 other isoform, or with tags, fused parts or gaps limits assumed): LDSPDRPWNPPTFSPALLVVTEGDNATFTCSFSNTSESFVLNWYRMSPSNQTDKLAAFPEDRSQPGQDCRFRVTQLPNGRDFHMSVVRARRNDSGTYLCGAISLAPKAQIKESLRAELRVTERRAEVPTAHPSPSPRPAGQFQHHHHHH
T1 sequence (Q15116 25-288): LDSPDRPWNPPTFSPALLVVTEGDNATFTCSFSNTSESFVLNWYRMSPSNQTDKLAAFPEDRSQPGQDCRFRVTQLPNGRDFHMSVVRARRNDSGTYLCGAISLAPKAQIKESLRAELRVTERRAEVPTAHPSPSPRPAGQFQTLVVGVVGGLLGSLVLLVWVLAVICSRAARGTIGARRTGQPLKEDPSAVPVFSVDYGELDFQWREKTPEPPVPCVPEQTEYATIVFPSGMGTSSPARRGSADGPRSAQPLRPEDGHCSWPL

B1: 31B1 (antibody, V domains shown)
VH: QVQLVQSGAEVKKPGSSVKVSCKASGGTFSSSVISWVRQAPGQGLEWMGGIIPIFGTANYAQKFQGRVTITADESTSTAYMELSSLRSEDTAVYYCAREGLGCSGGSCYSGYYYGMDVWGQGTTVTVSS
VL: DIVMTQSPLSLPVTPGEPASISCRSSQSLLHSNGYNYLDWYLQKPGQSPQLLIYEASSLHSGVPDRFSGSGSGTDFTLKISRVEAEDVGVYYCMQGTHWPYTFGQGTKVEIK
notes: also called 780_38; 33B1 and 31B2 (apparent misprints)
[1]
  EC50: 0.049 nM
  MFI at 25 nM: 18.4 MFI
[2]
  MFI, 5 nM: 186 MFI
[3]
  Kd: 0.353 nM
[4]
  Kd: < 0.01 nM
[5]
  IC50: 3.94 nM
  Inhibition, % at 3.7 nM: 41.4%
  Inhibition, % at 100 nM: 94.5%
[6]
  EC50: 0.139 nM
[7]
  Kd: 0.688 nM
[8]
  EC50: 0.025 nM
  MFI at 25 nM: 17.8 MFI
[9]
  Kd: < 0.036 nM
[10]
  Kd: < 0.014 nM
[11]
  EC50: 0.244 nM
  OD450 at 10 nM: 0.953 OD450
[12]
  MFI, 5 nM: 98.5 MFI
[13]
  EC50 averaged from two experiments, Promega blockade bioassay: 0.168 µg/mL
[14]
  EC50: 0.167 nM
  OD450 at 10 nM: 0.974 OD450
[15]
  EC50: 0.077 nM
  MFI at 5 nM: 46.4 MFI
[16]
  EC50, Promega blockade bioassay, Exp. 1: 0.168 µg/mL
  EC50, Promega blockade bioassay, Exp. 2: 0.172 µg/mL
  Fold induction at 12 µg/ml, Exp. 1: 7.44 fold
  Fold induction at 12 µg/ml, Exp. 2: 8.4 fold
[17]
  EC50: 0.095 nM
  OD450 at 10 nM: 0.59 OD450
[18]
  EC50: 0.114 nM
[19]
  Kd: 0.01 to 0.02 nM
[20]
  IC50: 2.15 nM
  Inhibition % at 5.6 nM: 90.2%
  Inhibition % at 50 nM: 91.4%
[21]
  MFI, 5 nM: 67 MFI
[22]
  Kd: < 0.019 nM
[23]
  EC50, Promega blockade bioassay: 0.139 µg/mL
  Fold induction: 6.48 fold
[24]
  EC50: 0.084 nM
  MFI at 5 nM: 91.6 MFI
[25]
  MFI, 5 nM: 67.7 MFI
[26]
  EC50: 0.104 nM
[27]
  Kd: 6.56 nM
[28]
  IC50: 2.65 nM
  Inhibition, % at 5.56 nM: 89.7%
[29]
  Kd: < 0.01 nM

B2: 23H9 (antibody, human IgG1, V domains shown)
VH: B1 VH
VL: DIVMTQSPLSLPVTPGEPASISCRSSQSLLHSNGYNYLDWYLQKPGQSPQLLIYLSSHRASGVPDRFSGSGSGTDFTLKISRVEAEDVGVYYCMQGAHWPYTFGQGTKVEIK
[30]
  EC 50, Promega PD-1/PD-L1 blockade bioassay: 0.688 µg/mL
  Fold of induction: 4.42 fold
[7]
  Kd: 0.928 nM
[11]
  EC50: 0.18 nM
  OD450 at 10 nM: 0.89 OD450
[31]
  IC50: 2.04 nM
  Inhibition % (3.3 nM): 82.5%
  Inhibition % (30 nM): 94.7%
[14]
  EC50: 0.121 nM
  OD450 at 10 nM: 0.916 OD450
[32]
  EC50: 2.53 nM
  MFI at 68 nM: 38.8 MFI
[15]
  EC50: 0.33 nM
  MFI at 5 nM: 43 MFI
[17]
  EC50: 0.238 nM
  OD450 at 10 nM: 0.406 OD450
[20]
  IC50: 1.27 nM
  Inhibition % at 5.6 nM: 88.6%
  Inhibition % at 50 nM: 90.4%
[33]
  EC50: 0.993 nM
  MFI at 100 nM: 26.2 MFI
[23]
  EC50, Promega blockade bioassay: 0.551 µg/mL
  Fold induction: 5.58 fold
[24]
  EC50: 0.42 nM
  MFI at 5 nM: 120 MFI
[34]
  EC50: 0.829 nM
  MFI at 100 nM: 109 MFI
[27]
  Kd: 4.91 nM
[35]
  EC50: 0.151 nM
  OD at 10 nM: 1.75 OD450
[36]
  EC50: 0.35 nM
  OD at 10 nM: 1.25 OD450

B3: 24H9 (antibody, human IgG1, V domains shown)
VH: EVQLLESGGGLVQPGGSLRLSCAASGFTFSSYWMSWVRQAPGKGLEWVSAISGSGGSTYYADSVKGRFTISRDNSKNTLYLQMNSLRAEDTAVYYCASSPLQWVDVWGQGTTVTVSS
VL: DIQMTQSPSSLSASVGDRVTITCRASQGISSWLAWYQQKPGKAPKLLIYSASSLQSGVPSRFSGSGSGTDFTLTISSLQPEDFATYYCQQANSFPFTFGPGTKVDIK
[30]
  EC 50, Promega PD-1/PD-L1 blockade bioassay: 0.823 µg/mL
  Fold of induction: 3.96 fold
[7]
  Kd: 1.46 nM
[31]
  IC50: 2.28 nM
  Inhibition % (3.3 nM): 70%
  Inhibition % (30 nM): 92.9%
[32]
  EC50: 58.7 nM
  MFI at 68 nM: 59 MFI
[15]
  EC50: 2.69 nM
  MFI at 5 nM: 42.8 MFI
[33]
  EC50: 1.37 nM
  MFI at 100 nM: 18.7 MFI
[23]
  EC50, Promega blockade bioassay: 0.855 µg/mL
  Fold induction: 4.97 fold
[24]
  EC50: 0.77 nM
  MFI at 5 nM: 80.6 MFI
[34]
  EC50: 0.913 nM
  MFI at 100 nM: 70.5 MFI
[27]
  Kd: 13.9 nM
[35]
  EC50: 0.128 nM
  OD at 10 nM: 1.84 OD450
[36]
  EC50: 1.31 nM
  OD at 10 nM: 0.69 OD450
